IntAct's records for PubMed 25728924

B1: Adhesion G protein-coupled receptor L3 (Mus musculus), Q80TS3 (parent)
chain: MWPPQLLILTMLLAPVVHGGKHNERHPALAAPLRHAERSPGGALPPRHLLQQPAAERSTAHRGQGPRGAARGVRGPGAPGAQIAAQAFSRAPIPMAVVRRELSCESYPIELRCPGTDVIMIESANYGRTDDKICDSDPAQMENIRCYLPDAYKIMSQRCNNRTQCAVVAGPDVFPDPCPGTYKYLEVQYECVPYKVEQKVFLCPGLLKGVYQSEHLFESDHQSGAWCKDPLQASDKIYYMPWTPYRTDTLTEYSSKDDFIAGRPTTTYKLPHRVDGTGFVVYDGALFFNKERTRNIVKFDLRTRIKSGEAIIANANYHDTSPYRWGGKSDIDLAVDENGLWVIYATEQNNGKIVISQLNPYTLRIEGTWDTAYDKRSASNAFMICGILYVVKSVYEDDDNEATGNKIDYIYNTDQSKDSLVDVPFPNSYQYIAAVDYNPRDNLLYVWNNYHVVKYSLDFGPLDSRSGPVHHGQVSYISPPIHLDSELERPPVRGISTTGSLGMGSTTTSTTLRTTTWNIGRSTTASLPGRRNRSTSTPSPAVEVLDDVTTHLPSAASQIPAMEESCEAVEAREIMWFKTRQGQVAKQPCPAGTIGVSTYLCLAPDGIWDPQGPDLSNCSSPWVNHITQKLKSGETAANIARELAEQTRNHLNAGDITYSVRAMDQLVGLLDVQLRNLTPGGKDSAARSLNKLQKRERSCRAYVQAMVETVNNLLQPQALNAWRDLTTSDQLRAATMLLDTVEESAFVLADNLLKTDIVRENTDNIQLEVARLSTEGNLEDLKFPENMGHGSTIQLSANTLKQNGRNGEIRVAFVLYNNLGPYLSTENASMKLGTEAMSTNHSVIVNSPVITAAINKEFSNKVYLADPVVFTVKHIKQSEENFNPNCSFWSYSKRTMTGYWSTQGCRLLTTNKTHTTCSCNHLTNFAVLMAHVEVKHSDAVHDLLLDVITWVGILLSLVCLLICIFTFCFFRGLQSDRNTIHKNLCISLFVAELLFLIGINRTDQPIACAVFAALLHFFFLAAFTWMFLEGVQLYIMLVEVFESEHSRRKYFYLVGYGMPALIVAVSAAVDYRSYGTDKVCWLRLDTYFIWSFIGPATLIIMLNVIFLGIALYKMFHHTAILKPESGCLDNINYEDNRPFIKSWVIGAIALLCLLGLTWAFGLMYINESTVIMAYLFTIFNSLQGMFIFIFHCVLQKKVRKEYGKCLRTHCCSGKSTESSIGSGKTSGSRTPGRYSTGSQSRIRRMWNDTVRKQSESSFITGDINSSASLNREGLLNNARDTSVMDTLPLNGNHGNSYSIAGGEYLSNCVQIIDRGYNHNETALEKKILKELTSNYIPSYLNNHERSSEQNRNMMNKLVNNLGSGSEDDAIVLDDAASFNHEESLGLELIHEESDAPLLPPRVYSTDNHQPHHYSRRRFPQDHSESFFPLLTDEHTEDLQSPHRDSLYTSMPALAGVPAADSVTTSTQTEAAAAKGGDAEDVYYKSMPNLGSRNHVHPLHAYYQLGRGSSDGFIVPPNKDGASPEGTSKGPAHLVTSL
partner: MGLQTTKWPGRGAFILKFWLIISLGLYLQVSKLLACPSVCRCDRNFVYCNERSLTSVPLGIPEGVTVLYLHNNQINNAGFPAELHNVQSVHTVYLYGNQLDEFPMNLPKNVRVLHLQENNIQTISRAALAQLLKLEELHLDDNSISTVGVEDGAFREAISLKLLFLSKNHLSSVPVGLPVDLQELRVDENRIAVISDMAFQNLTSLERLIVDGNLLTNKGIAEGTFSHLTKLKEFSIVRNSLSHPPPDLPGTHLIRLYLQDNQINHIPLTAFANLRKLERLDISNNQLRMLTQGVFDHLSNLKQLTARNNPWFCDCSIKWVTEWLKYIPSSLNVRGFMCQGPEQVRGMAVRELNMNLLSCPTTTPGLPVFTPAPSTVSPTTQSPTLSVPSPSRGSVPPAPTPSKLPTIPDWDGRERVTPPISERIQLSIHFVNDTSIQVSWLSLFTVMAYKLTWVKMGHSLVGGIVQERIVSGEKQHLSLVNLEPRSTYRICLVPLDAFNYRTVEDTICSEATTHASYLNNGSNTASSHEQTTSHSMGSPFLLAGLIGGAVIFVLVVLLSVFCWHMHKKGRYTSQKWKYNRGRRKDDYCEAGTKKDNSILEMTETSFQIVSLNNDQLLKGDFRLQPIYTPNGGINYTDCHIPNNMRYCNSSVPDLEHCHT
B2: Leucine-rich repeat transmembrane protein FLRT2 (Mus musculus), Q8BLU0 (parent)
chain: B1 partner

Variants of: B1
Conditions: with flrt2_mouse Flrt2, Q8BLU0

effect of a mutation on the interaction | Variant
decreasing interaction strength | P244N;R246T
disrupting interaction strength | R324N;G326T
disrupting interaction strength | R292N;R294T
decreasing interaction strength | T267N;K269T

Variants of: B2
Conditions: with agrl3_mouse Adgrl3, Q80TS3

effect of a mutation on the interaction | Variant
disrupting interaction strength | R186N;D188T
